Laboratory results taken from PMC6576074, “NF‐YB1‐YC12‐bHLH144 complex directly activates Wx to regulate grain quality in rice (Oryza sativa L.)”.

B1: Wx promoter probe 2 (dsDNA)
DNA 1: CAGGCACTCAGCTCGCTGCTGGTCCCGCACGTCGCCACACGATCGACGTACGCACGCGAG
DNA 2: CTCGCGTGCGTACGTCGATCGTGTGGCGACGTGCGGGACCAGCAGCGAGCTGAGTGCCTG
B2: Wx promoter probe 4 (dsDNA)
DNA 1: CAACGTGCCAACGTACGCACGCTAACGTGAGTCATGTAGCGTAATTCCAAGTTCTTTTTT
DNA 2: AAAAAAGAACTTGGAATTACGCTACATGACTCACGTTAGCGTGCGTACGTTGGCACGTTG
B3: Wx promoter probe 5 (dsDNA)
DNA 1: AGATCATATCGTCTCCAGACTCAAGTGCACGTTGATCGTTCGCTCACTGCTTCATCGATC
DNA 2: GATCGATGAAGCAGTGAGCGAACGATCAACGTGCACTTGAGTCTGGAGACGATATGATCT
B4: HIS‐NF‐YB1 (natural protein)
chain: MAGNKKRGGRNMDQVKKAAVRSDGVGGSATNAELPMANLVRLIKKVLPGKAKIGGAAKGLTHDCAVEFVGFVGDEASEKAKAEHRRTVAPEDYLGSFGDLGFDRYVDPMDAYIHGYREFERAGGNRRVAPPPPAAATPLTPGGPTFTDAELQFLRSVIPSRSDDEYSGSSPAIGGYGYGYGYGKNM
B5: NF‐YB1‐pTRG (natural protein)
chain: MAGNKKRGGRNMDQVKKAAVRSDGVGGSATNAELPMANLVRLIKKVLPGKAKIGGAAKGLTHDCAVEFVGFVGDEASEKAKAEHRRTVAPEDYLGSFGDLGFDRYVDPMDAYIHGYREFERAGGNRRVAPPPPAAATPLTPGGPTFTDAELQFLRSVIPSRSDDEYSGSSPAIGGYGYGYGYGKNM
B6: Wx promoter probe 3 (dsDNA)
DNA 1: CGTAATTCCAAGTTCTTTTTTTTTTGTCAGCACGTACAAGCAGCCGCTAGCCTCGCCCTG
DNA 2: CAGGGCGAGGCTAGCGGCTGCTTGTACGTGCTGACAAAAAAAAAAGAACTTGGAATTACG

Columns and labels:
[1] = molecular target: HIS‐NF‐YB1 (rice (Oryza sativa L.)) (UniProt Q6Z348)
[2] = molecular target: LGF2‐pBT; experiment: two-hybrid; bacterial two-hybrid (BacterioMatch II) in E. coli XL1‐Blue MRF′; NF‐YB1‐pTRG and NF‐YCs‐pBT; growth on M9/+Cm/+Ter/+3‐AT/+Strep/‐HIS against M9/+Cm/+Ter; intensity = ratio (%) of colony numbers
[3] = molecular target: T1, HIS-NF-YB1 (Oryza sativa L. (rice; cultivar not …, UniProt Q6Z348 1-186); experiment: EMSA; EMSA: Beyotime EMSA/Gel-shift binding buffer (composition and pH not given), 10 uL, 2 nmol biotin probe, 5 nmol protein, 20 min preincubation + 20 min at 25 C; settings: protein: recombinant; tags: N-terminal His (pET28a); label: biotin; blunt
T1 sequence: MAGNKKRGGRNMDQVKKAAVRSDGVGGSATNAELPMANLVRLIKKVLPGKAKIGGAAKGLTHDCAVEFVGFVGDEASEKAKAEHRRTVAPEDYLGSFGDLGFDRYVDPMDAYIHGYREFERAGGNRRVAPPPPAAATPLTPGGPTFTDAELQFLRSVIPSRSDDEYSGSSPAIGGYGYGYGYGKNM

[4] = molecular target: GST‐NF‐YC12 (rice (Oryza sativa L.))
[5] = molecular target: NF‐YC12‐pBT (rice (Oryza sativa L.)); experiment: two-hybrid; bacterial two-hybrid (BacterioMatch II) in E. coli XL1‐Blue MRF′; NF‐YB1‐pTRG and NF‐YCs‐pBT; growth on M9/+Cm/+Ter/+3‐AT/+Strep/‐HIS against M9/+Cm/+Ter; intensity = ratio (%) of colony numbers

| Molecule | binding result [3] | other results |
| --- | --- | --- |
| HIS‐bHLH144‐FLAG (natural protein) | – | half-life of HIS‐NF‐YB1 in a cell-free degradation assay with GST‐NF‐YC12 and HIS‐bHLH144‐FLAG added (heterotrimer); around 15 min for HIS‐NF‐YB1 alone [1]: 40 min |
| Gal11‐pTRG | – | interaction intensity (ratio of colony numbers on selective and non-selective medium) [2]: 33.8% |
| B1 | no binding | – |
| B2 | no binding | – |
| B3 | no binding | – |
| B4 | – | half-life of HIS‐NF‐YB1 in a cell-free degradation assay (total protein extract of 10 DAG rice seedlings) with GST‐NF‐YC12 added; around 15 min for HIS‐NF‐YB1 alone [4]: 30 min |
| B5 | – | interaction intensity (ratio of colony numbers on selective and non-selective medium) [5]: 63.7% |
| B6 | no binding | – |
